Laboratory results as given in PMC8288866, “MKRN3 regulates the epigenetic switch of mammalian puberty via ubiquitination of MBD3” (National Science Review, 2020).

Experiments:
MBD3 (Homo sapiens) [1] = target: T1, MBD3 (Homo sapiens) (UniProt O95983); assay: competition; conditions: EMSA with 32P-labeled PCR probes, binding buffer, salt, pH and temperature not in the material
T1 sequence: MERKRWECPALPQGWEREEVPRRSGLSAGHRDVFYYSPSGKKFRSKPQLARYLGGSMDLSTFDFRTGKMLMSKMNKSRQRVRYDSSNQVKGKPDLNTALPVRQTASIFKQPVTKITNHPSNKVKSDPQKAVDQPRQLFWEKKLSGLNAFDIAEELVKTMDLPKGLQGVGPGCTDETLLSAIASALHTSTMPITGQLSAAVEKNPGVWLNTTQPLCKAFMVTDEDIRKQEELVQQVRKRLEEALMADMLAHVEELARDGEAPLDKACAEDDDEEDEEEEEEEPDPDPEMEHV

MBD3 (Homo sapiens) [2] = target: T1, MBD3 (Homo sapiens); assay: EMSA; conditions: EMSA with 32P-labeled PCR probes, binding buffer, salt, pH and temperature not in the material
[3] = target: T2, recombinant MKRN3 protein (GST-tagged) (human, UniProt Q13064 1-507); assay: pull-down; GST pull-down of MKRN3 protein with His6-tagged MBD3, in vitro; conditions: both partners purified
T2 construct: MKRN3 (Makorin ring finger protein 3), human, E3 ubiquitin ligase; also called Makorin ring finger protein 3; source: recombinant
T2 sequence (looked up): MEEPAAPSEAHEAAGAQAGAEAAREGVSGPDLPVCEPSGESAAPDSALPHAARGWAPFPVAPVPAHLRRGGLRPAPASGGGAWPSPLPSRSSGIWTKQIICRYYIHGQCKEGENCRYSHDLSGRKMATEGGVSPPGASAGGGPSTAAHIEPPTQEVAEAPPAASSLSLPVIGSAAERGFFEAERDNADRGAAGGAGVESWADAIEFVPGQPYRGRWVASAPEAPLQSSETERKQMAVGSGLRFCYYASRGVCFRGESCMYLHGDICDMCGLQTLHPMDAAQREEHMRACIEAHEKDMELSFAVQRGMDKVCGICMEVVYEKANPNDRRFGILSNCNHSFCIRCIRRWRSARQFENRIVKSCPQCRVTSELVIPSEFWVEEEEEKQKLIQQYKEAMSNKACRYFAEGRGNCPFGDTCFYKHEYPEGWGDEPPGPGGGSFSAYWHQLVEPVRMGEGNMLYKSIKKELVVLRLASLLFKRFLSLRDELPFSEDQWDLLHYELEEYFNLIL

TTCTTCAGCTTTGGGACTCAGACTGGCTTTCCTTGCTCCTCAGCTTGCGGACGGCCTACTGTGGGACCTTGGGATCGTGTGAGTTAATACTTAATAAACTCTCCTATGTGCGTGTGTTTGTGTGTGTGTGTGTGTGTGTATGTATTCTGTCCCTCTAGAGAATGCTGAGTAATACA (double strand) [GNRH1 promoter 5hmC competitor]
binding (MBD3 (Homo sapiens) [1]; 5-hydroxymethylcytosine): binds

TTCTTCAGCTTTGGGACTCAGACTGGCTTTCCTTGCTCCTCAGCTTGCGGACGGCCTACTGTGGGACCTTGGGATCGTGTGAGTTAATACTTAATAAACTCTCCTATGTGCGTGTGTTTGTGTGTGTGTGTGTGTGTGTATGTATTCTGTCCCTCTAGAGAATGCTGAGTAATACA (double strand) [GNRH1 promoter 5hmC probe]
binding (MBD3 (Homo sapiens) [2]; all cytosines 5-hydroxymethylcytosine (PCR with 5hm-dCTP; primer-derived cytosines presumably unmodified)): binds

TTCTTCAGCTTTGGGACTCAGACTGGCTTTCCTTGCTCCTCAGCTTGCGGACGGCCTACTGTGGGACCTTGGGATCGTGTGAGTTAATACTTAATAAACTCTCCTATGTGCGTGTGTTTGTGTGTGTGTGTGTGTGTGTATGTATTCTGTCCCTCTAGAGAATGCTGAGTAATACA (double strand) [GNRH1 promoter 5mC probe]
binding (MBD3 (Homo sapiens) [2]; 5-methylcytosine (PCR with 5m-dCTP; primer-derived cytosines presumably unmodified)): no binding

TTCTTCAGCTTTGGGACTCAGACTGGCTTTCCTTGCTCCTCAGCTTGCGGACGGCCTACTGTGGGACCTTGGGATCGTGTGAGTTAATACTTAATAAACTCTCCTATGTGCGTGTGTTTGTGTGTGTGTGTGTGTGTGTATGTATTCTGTCCCTCTAGAGAATGCTGAGTAATACA (double strand) [GNRH1 promoter unmodified C probe]
binding (MBD3 (Homo sapiens) [2]): binds more weakly

TTCTTCAGCTTTGGGACTCAGACTGGCTTTCCTTGCTCCTCAGCTTGCGGACGGCCTACTGTGGGACCTTGGGATCGTGTGAGTTAATACTTAATAAACTCTCCTATGTGCGTGTGTTTGTGTGTGTGTGTGTGTGTGTATGTATTCTGTCCCTCTAGAGAATGCTGAGTAATACA (double strand) [GNRH1 promoter unmodified competitor]
binding (MBD3 (Homo sapiens) [1]): binds more weakly

B1: His6-tagged MBD3 (natural protein, human, UniProt O95983 1-291, looked up)
chain: T1 sequence
notes: MBD3, human; also called recombinant MBD3; recombinant human MBD3 protein; source: recombinant
binding result [3]: binds
